The values below come from publication PMC3939451.

A short description of data set [1]: steady-state immunoblot, HEK293. The conditions noted are these: glycan lost. For orientation: A western blot detects proteins with antibodies after separation by electrophoresis.
A short description of data set [2]: CHX chase, immunoblot, percent remaining. The conditions noted are these: glycan lost; control: WT-ABCG8.

B1: ABCG5: N584Q (protein)
parent chain: MGDLSSLTPGGSMGLQVNRGSQSSLEGAPATAPEPHSLGILHASYSVSHRVRPWWDITSCRQQWTRQILKDVSLYVESGQIMCILGSSGSGKTTLLDAMSGRLGRAGTFLGEVYVNGRALRREQFQDCFSYVLQSDTLLSSLTVRETLHYTALLAIRRGNPGSFQKKVEAVMAELSLSHVADRLIGNYSLGGISTGERRRVSIAAQLLQDPKVMLFDEPTTGLDCMTANQIVVLLVELARRNRIVVLTIHQPRSELFQLFDKIAILSFGELIFCGTPAEMLDFFNDCGYPCPEHSNPFDFYMDLTSVDTQSKEREIETSKRVQMIESAYKKSAICHKTLKNIERMKHLKTLPMVPFKTKDSPGVFSKLGVLLRRVTRNLVRNKLAVITRLLQNLIMGLFLLFFVLRVRSNVLKGAIQDRVGLLYQFVGATPYTGMLNAVNLFPVLRAVSDQESQDGLYQKWQMMLAYALHVLPFSVVATMIFSSVCYWTLGLHPEVARFGYFSAALLAPHLIGEFLTLVLLGIVQNPNIVNSVVALLSIAGVLVGSGFLRNIQEMPIPFKIISYFTFQKYCSEILVVNEFYGLNFTCGSSNVSVTTNPMCAFTQGIQFIEKTCPGATSRFTMNFLILYSFIPALVILGIVVFKIRDHLISR
In the case of B1, the expression_or_secretion result in data set [1] (control: WT-ABCG5) was “decreases”.

B2: ABCG5: N584Q/N591Q (protein)
parent chain: B1 parent chain
In the case of B2, the expression_or_secretion result in data set [1] (control: WT-ABCG5) is reported as “decreases”.

B3: ABCG5: N591Q (protein)
parent chain: B1 parent chain
Regarding B3, the expression_or_secretion entry in data set [1] (control: WT-ABCG5) is recorded as “decreases”.

B4: ABCG8: N619Q (protein)
parent chain: MAGKAAEERGLPKGATPQDTSGLQDRLFSSESDNSLYFTYSGQPNTLEVRDLNYQVDLASQVPWFEQLAQFKMPWTSPSCQNSCELGIQNLSFKVRSGQMLAIIGSSGCGRASLLDVITGRGHGGKIKSGQIWINGQPSSPQLVRKCVAHVRQHNQLLPNLTVRETLAFIAQMRLPRTFSQAQRDKRVEDVIAELRLRQCADTRVGNMYVRGLSGGERRRVSIGVQLLWNPGILILDEPTSGLDSFTAHNLVKTLSRLAKGNRLVLISLHQPRSDIFRLFDLVLLMTSGTPIYLGAAQHMVQYFTAIGYPCPRYSNPADFYVDLTSIDRRSREQELATREKAQSLAALFLEKVRDLDDFLWKAETKDLDEDTCVESSVTPLDTNCLPSPTKMPGAVQQFTTLIRRQISNDFRDLPTLLIHGAEACLMSMTIGFLYFGHGSIQLSFMDTAALLFMIGALIPFNVILDVISKCYSERAMLYYELEDGLYTTGPYFFAKILGELPEHCAYIIIYGMPTYWLANLRPGLQPFLLHFLLVWLVVFCCRIMALAAAALLPTFHMASFFSNALYNSFYLAGGFMINLSSLWTVPAWISKVSFLRWCFEGLMKIQFSRRTYKMPLGNLTIAVSGDKILSVMELDSYPLYAIYLIVIGLSGGFMVLYYVSLRFIKQKPSQDW
As to B4, the expression_or_secretion result in data set [1] (control: WT-ABCG8) is on record as “decreases”. Further, the degradation_or_half_life entry in data set [2] is on record as “decreases, 44.40% vs. 43.95% at 2 hrs; 26.01% vs. 29.36% at 4 hrs”.
